Laboratory results taken from the supplement of paper PMC10201428.
± gives the standard deviation of the averaged measurements.

B1: library; a variant is named by its letters at N, in order (parent)
chain: ACATTTGTTGATACAACCATAAAATGATAATTACACCCATAAATTGATAATTATCACACCCANNNNNNNNNNNNNNCTCTGATCATAGTCAGACCAACATTGCTACGACCCGTATTCGCACCGACAC
B2: library; a variant is named by its letters at N, in order (parent)
chain: AATGTTGTTGATGCAACCATAAAGTGATATTTAATAATTATTTATAATCAGCAACTTAACCACAAAACAACCATATATTGATATNTCACAAAACAACCATAANTTGATATTTTTGTGAATCGAGTATTTCAGCAAAACTACTGCAGTAAGAA

Tests used:
Settings in all cases: with VchCAST RNA-guided transposition machinery (E. coli BL21(DE3) host, lacZ target)
[1] = variants of: B1; assay: relative integration efficiency (T-RL orientation) vs wild-type transposon end (log2 (normalized fold change)); transposon end mutated: right end (5 bp flank + 75 bp right end); higher = more efficient transposition
Procedure: (§1)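 Pooled, barcoded VchCAST (Tn6677) mini-transposon donor libraries; each variable transposon-end sequence sits in a fixed pDonor mini-transposon context (10-bp barcode and cargo not included). Left- or right-end libraries were co-transformed with pEffector (TniQ-Cascade, TnsABC, lacZ crRNA, T7, 0.1 mM IPTG) into E. coli BL21(DE3) and grown 18 h at 37 C. T-LR and T-RL junction amplicons were sequenced; output/input barcode fold change was normalised to the mean of four wild-type barcodes and log2-transformed. Two biological replicates; zero-count/undetected variants carry floor values (-10 / -15), censored here. Barcode uncoupling by PCR recombination adds noise.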

[2] = variants of: B1; assay: relative integration efficiency (T-LR orientation) vs wild-type transposon end (log2 (normalized fold change)); transposon end mutated: right end (5 bp flank + 75 bp right end); higher = more efficient transposition
Procedure: as §1

[3] = variants of: B2; assay: relative integration efficiency (T-LR orientation) vs wild-type transposon end (log2 (normalized fold change)); transposon end mutated: left end; higher = more efficient transposition
Summary of the method: (§2)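 Barcoded pools of 1549 left-end or 1849 right-end transposon variants were cloned into a pUC57 mini-transposon donor. Each pool was co-transformed with a T7-driven effector plasmid (CRISPR array, tniQ-cas8-cas7-cas6, tnsA-tnsB-tnsC) into E. coli BL21(DE3) and plated with 0.1 mM IPTG at 37°C for 18 h. Input plasmids and genomic integration junctions were PCR-amplified and Illumina-sequenced, with two biological output replicates and four wild-type barcodes as reference. Relative integration efficiency is output/input barcode abundance fold change, normalised to wild-type barcodes and log-transformed.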

[4] = variants of: B2; assay: relative integration efficiency (T-RL orientation) vs wild-type transposon end (log2 (normalized fold change)); transposon end mutated: left end; higher = more efficient transposition
Summary of the method: as §2

Row | Variant | relative integration efficiency (log2) [1] | relative integration efficiency (log2) [2] | relative integration efficiency (log2) [3] | relative integration efficiency (log2) [4]
1 | TAAATTGCTATTGC | -0.207 ± 0.014 | 0.841 ± 0.12 |  | 
2 | TAAATTGATATTGA C77A | 0.00362 ± 0.0095 | 0.066 ± 0.4 |  | 
3 | TAAATTGATATTGC A3T | -0.114 ± 0.0076 | -0.195 ± 0.15 |  | 
4 | TAAATTGATATTGC A3G | 0.00116 ± 0.033 | 0.0517 ± 0.23 |  | 
5 | TAAATTGATATTGC A23T | 1.42 ± 0.079 | 1.34 ± 0.053 |  | 
6 | TAAATTGATATTGC | -0.0034 ± 0.1 | -0.0165 ± 0.24 |  | 
7 | TAAATTGATATTGG | 0.00187 ± 0.0011 | -0.155 ± 0.042 |  | 
8 | TAAATTGATATTGT | 0.127 ± 0.093 | 0.155 ± 0.13 |  | 
9 | ATTTAACTATAACG T31A | -1.32 ± 0.36 | 2.39 ± 0.16 |  | 
10 | ATTTAACTATAACG T31C | -0.932 ± 0.22 | 2.62 ± 0.071 |  | 
11 | AAAATTGATATTGC | -0.0332 ± 0.012 | 0.998 ± 0.085 |  | 
12 | TAAATTGATATTGC A29T | -0.372 ± 0.011 | 0.436 ± 0.063 |  | 
13 | TAAATTGATATTGC A29G | -0.169 ± 0.087 | -0.293 ± 0.074 |  | 
14 | TAAATTGATATTGC G26C | -1.71 ± 0.29 | -1.36 ± 0.46 |  | 
15 | TAAATTGATATTGC G26A | -0.553 ± 0.15 | -0.268 ± 0.011 |  | 
16 | TAAATTGATATTGC A62C | -0.726 ± 0.016 | 2.18 ± 0.2 |  | 
17 | GCCATTGATATTGC A62C | -0.86 ± 0.27 | 2.47 ± 0.15 |  | 
18 | TAAATTGATATTGC A21C | -0.283 ± 0.04 | -0.846 ± 0.23 |  | 
19 | TAAATTGATATTGC A21G | -0.564 ± 0.14 | -1.31 ± 0.14 |  | 
20 | GAAATTGATATTGC | -0.446 ± 0.11 | 2.2 ± 0.046 |  | 
21 | ATTTAACTATAACG T44C | -0.948 ± 0.24 | 2.28 ± 0.14 |  | 
22 | ATTTAACTATAACG T44A | -0.682 ± 0.22 | 2.32 ± 0.13 |  | 
23 | TAAATTGATATTGC A41C | -0.815 ± 0.047 | -0.78 ± 0.23 |  | 
24 | TAAATTGATATTGC A41T | -0.0667 ± 0.018 | -0.148 ± 0.022 |  | 

Row | Variant | relative integration efficiency (log2) [1] | relative integration efficiency (log2) [2] | relative integration efficiency (log2) [3] | relative integration efficiency (log2) [4]
25 | TAAATTGATATTGC A41G | -0.104 ± 0.45 | -0.399 ± 1.1 |  | 
26 | TAAATTGTTATTGC | -0.347 ± 0.057 | 1.61 ± 0.16 |  | 
27 | ATTTAACTATAACG A53G | -1.38 ± 0.34 | 2.239 ± 0.0053 |  | 
28 | ATTTAACTATAACG A53C | -1.32 ± 0.33 | 2.49 ± 0.26 |  | 
29 | TAAATTGATATTGC C55T | -0.293 ± 0.17 | 0.175 ± 0.29 |  | 
30 | TAAATTGATATTGC C55G | -0.145 ± 0.21 | 0.0542 ± 0.17 |  | 
31 | CG T125G |  |  | 0.265 ± 0.28 | -0.0179 ± 0.099
32 | CG G7T T8G T9G G10T |  |  |  | -7.84 ± 0.54
33 | CT T100G A101C A102C |  |  | -1.43 ± 0.25 | -2.43 ± 0.88
34 | CG T6A G7C |  |  |  | -6.27 ± 0.56
35 | CG C55A T56G T57G A58C |  |  |  | -2.14 ± 0.62
36 | CT T104G |  |  | -0.14 ± 0.17 | -0.45 ± 0.14
37 | CG T45C A46T A47T C49T A50G C52T A53T T56A A59T C60T |  |  |  | -6.51 ± 2
38 | CG T120G C121A G122T A123C G124T T125G |  |  | 0.433 ± 0.18 | 0.166 ± 0.011
39 | CT T104G T105G G106T |  |  | -1.03 ± 0.46 | -1.06 ± 0.9
40 | CT |  |  | 0.219 ± 0.67 | -0.0852 ± 0.034
41 | CT A23C A77C |  |  | -0.217 ± 1.2 | -0.234 ± 0.065
42 | CG T38C A40G T42A A44T A47T T48A C49T G51C C52A A53G A54T C55T T56G |  |  |  | -5.99 ± 0.93
43 | CG G4C T5A T6A G7C |  |  |  | -7.62 ± 0.39
44 | CT A102C T104G T105G |  |  | -1.62 ± 0.69 | -1.98 ± 0.87
45 | CG T8G T9G G10T A11C |  |  |  | -7.43 ± 0.35
46 | CG T8G T9G |  |  |  | -6.84 ± 0.88
47 | CG T5A T6A G7C T8A |  |  |  | -7.12 ± 1.1
48 | CG T41A A44G A46G T48G A50G C52A A53T C55A T56C T57A A59T C60T |  |  |  | -4.27 ± 0.75

Row | Variant | relative integration efficiency (log2) [1] | relative integration efficiency (log2) [2] | relative integration efficiency (log2) [3] | relative integration efficiency (log2) [4]
49 | CG T20G T74G T100G |  |  |  | -6.64 ± 1.3
50 | CG C49G A50T C52A A53T C55A T56C T57A A59T C61A A62C C63A A64G |  |  |  | -3.37 ± 1.4
51 | CG T48A C49T A50T C52T A53G C55G T56C T57G A58G C60T C61A A66T A67T |  |  |  | -4.31 ± 0.86
52 | CG A19C A73C A99C |  |  |  | -6.27 ± 1.8
53 | CT A22C A23C G24T T76G A77C T78G A102C T104G |  |  | -4.26 ± 1.6 | -3.88 ± 1.4
54 | CG A22C T76G A102C |  |  |  | -3.7 ± 1.5
55 | CG G10C A11T T12A G13C |  |  |  | -0.736 ± 0.86
56 | CT A102C |  |  | -1.29 ± 0.9 | -0.973 ± 0.41
57 | CG T6G G7T |  |  |  | -9.04 ± 0.91
58 | CG T6A G7C T8A T9A |  |  |  | -6.58 ± 0.36
59 | CT A101C A102C T104G |  |  | -2.08 ± 1.2 | -1.96 ± 0.64
60 | CG T6G |  |  |  | -7.013 ± 0.063
61 | CG A19C T20G A21C A22C |  |  |  | -3.48 ± 1.4
62 | CT A23C G24T A77C T78G T104G |  |  | -0.239 ± 0.088 | -0.527 ± 0.28
63 | CG T82A |  |  |  | -0.103 ± 0.77
64 | CT A22C A23C G24T T25G T76G A77C T78G T79G A102C T104G T105G |  |  | < -10 | -8.29 ± 1.2
65 | CT A21C A22C A23C G24T A75C T76G A77C T78G A101C A102C T104G |  |  |  | -7.99 ± 1.6
66 | CT A22C A23C T76G A77C A102C |  |  | -3.01 ± 0.15 | -3.81 ± 0.97
67 | CG A44G T45C A47T T48A C49A G51A C52A A53T A54T T56A A58C |  |  |  | -6.6 ± 1.8
68 | CG G7C T8A |  |  |  | -6.52 ± 0.12
69 | CG T3A G4C T5A T6A |  |  |  | -6.84 ± 0.4
70 | CG T42A A44T C49A G51T C52T C55T A59T C60A C61T C63T A64T A65T |  |  |  | -2.87 ± 0.52
